The text below walks through data of US11306156.

pKd: −log10 of the molar value.

By pKd is commonly meant −log10 of the Kd, conventionally taken in molar units. Low values mean a large Kd, high ones a small Kd.

The target of test [1] is tissue factor (TF) antigen (UniProt P13726). As to the kind of experiment: SPR (ProteOn), Fab captured by anti-penta-His, TF as analyte, 1:1 fit.
Test [2] shares this target. As to the kind of experiment: SPR (ProteOn), against wild-type D3H44 Fab.
Test [3] shares this target. As to the kind of experiment: SPR (ProteOn), Fab captured on anti-penta-His, TF analyte, 1:1 fit.
Test [4] has the same target. As to the kind of experiment: SPR KD against wild-type D3H44 Fab (reference KD 0.157 nM).

Chain of tissue factor (TF) antigen (P13726 33-251 limits assumed): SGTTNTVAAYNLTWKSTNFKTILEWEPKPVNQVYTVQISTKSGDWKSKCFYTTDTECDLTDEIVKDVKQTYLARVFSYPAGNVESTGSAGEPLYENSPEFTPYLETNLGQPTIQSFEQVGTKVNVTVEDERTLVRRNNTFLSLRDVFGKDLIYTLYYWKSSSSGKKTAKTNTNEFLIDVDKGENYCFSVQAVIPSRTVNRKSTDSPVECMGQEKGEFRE

“D3H44 Fab heterodimer, H1L1 of LCCA set 9741 (H: L143R; L: Q124E_V133E_Q160F)”: the pKd in test [1] was 10.15. In addition, the Change in KD with respect to wild type (-(log(KD design) - log(KD wt))) in test [2] amounted to 0.34.
In the case of “D3H44 Fab heterodimer, H1L1 of LCCA set 9575 (H: L143D_K145T_Q179E; L: T178R)”, the negative logarithm of the Kd (pKd) in test [1] was 9.55. The substance also displayed a Change in KD with respect to wild type (-(log(KD design) - log(KD wt))) in test [2] of -0.25.
The substance “D3H44 Fab heterodimer, H1L1 of LCCA set 9688 (H: L143E_K145T_Q179E_S188L; L: Q124R_T178R)” had a pKd in test [1] of 9.47. Besides, the Change in KD with respect to wild type (-(log(KD design) - log(KD wt))) in test [2] was -0.34.
Turning to “D3H44 Fab heterodimer, H1L1 of LCCA set 9987 (H: L143E_K145T; L: Q124R_T178R)”, the negative-log Kd (pKd) in test [1] was 9.96. This substance also had a Change in KD with respect to wild type (-(log(KD design) - log(KD wt))) in test [2] of 0.15.
As for “D3H44 Fab heterodimer, H1L1 of LCCA set 9843 (H: S186K; L: Q124E_S131T_T178F_T180E)”, in test [1], the pKd is 9.77. For the same substance, the Change in KD with respect to wild type (-(log(KD design) - log(KD wt))) in test [2] is -0.03.
As to “D3H44 Fab heterodimer, H1L1 of LCCA set 9885 (H: S186R; L: Q124E_S176L_T180E)”, in test [1], the pKd is 9.74. Further, the Change in KD with respect to wild type (-(log(KD design) - log(KD wt))) in test [2] was -0.06.
Take “D3H44 Fab heterodimer, H1L1 of LCCA set 9632 (H: L143E_K145T_Q179D; L: Q124R_T178R)”: in test [1], the pKd was 9.85. The same substance displayed a Change in KD with respect to wild type (-(log(KD design) - log(KD wt))) in test [2] of 0.04.
Taken in the same sequence, the figures for “D3H44 Fab heterodimer, H1L1 of LCCA set 9684 (H: L143E_K145T_Q179E; L: T178R)” were 9.52 and -0.28.
Take “D3H44 Fab heterodimer, H: L124A_L143F_Q179K, L: Q124E_V133W_S176T_T178E_T180E (H1L1 Fab of LCCA set 9092)”: the negative-log Kd (pKd) in test [3] is 9.80. Besides, in test [4], the Change in KD with respect to wild type (-(log(KD design) - log(KD wt))) was -0.02.
Regarding “D3H44 Fab heterodimer, H: Q179K, L: Q124E_Q160E_T180E (H1L1 Fab of LCCA set 9759)”, the pKd in test [3] was 9.49. Besides, the Change in KD with respect to wild type (-(log(KD design) - log(KD wt))) in test [4] was -0.31.
Regarding “D3H44 Fab heterodimer, H1L1 of LCCA set 9638 (H: L143E_K145T_Q179D; L: T178R)”, in test [1], the pKd was 9.96. In test [2], the Change in KD with respect to wild type (-(log(KD design) - log(KD wt))) stood at 0.17.
As to “D3H44 Fab heterodimer, H: L143E_K145T_Q179D, L: Q124R_T178R (H1L1 Fab of LCCA set 9632)”, in test [3], the negative-log Kd (pKd) is 9.85. Moreover, the Change in KD with respect to wild type (-(log(KD design) - log(KD wt))) in test [4] is 0.04.
Consider “D3H44 Fab heterodimer, H1L1 of LCCA set 9444 (H: L124R_Q179K; L: V133G_S176D_T180E)”, for which, in test [1], the negative logarithm of the Kd (pKd) is 9.55. The substance also came in with a Change in KD with respect to wild type (-(log(KD design) - log(KD wt))) in test [2] of -0.26.
With “D3H44 Fab heterodimer, H: L143K, L: Q124E_V133D (H1L1 Fab of LCCA set 9731)”, the negative-log Kd (pKd) in test [3] is 9.55. The Change in KD with respect to wild type (-(log(KD design) - log(KD wt))) in test [4] is -0.26.
Substance “D3H44 Fab heterodimer, H1L1 of LCCA set 9588 (H: L143E_K145T; L: Q124R)” had a pKd in test [1] of 9.55. The Change in KD with respect to wild type (-(log(KD design) - log(KD wt))) in test [2] was -0.25.
Substance “D3H44 Fab heterodimer, H: S186R, L: Q124E_Q160E_T178E (H1L1 Fab of LCCA set 9868)” showed a pKd in test [3] of 9.85. The substance further returned a Change in KD with respect to wild type (-(log(KD design) - log(KD wt))) in test [4] of 0.06.
As to “D3H44 Fab heterodimer, H1L1 of LCCA set 9620 (H: L143E_K145T_Q179D; L: Q124R_Q160K_T178R)”, in test [1], the negative logarithm of the Kd (pKd) was 10.22. Moreover, in test [2], the Change in KD with respect to wild type (-(log(KD design) - log(KD wt))) is 0.39.
Turning to “D3H44 Fab heterodimer, H: L124A_Q179K, L: Q124E_V133W_S176T_T178E_T180E (H1L1 Fab of LCCA set 9098)”, the negative-log Kd (pKd) in test [3] was 9.77. In addition, in test [4], the Change in KD with respect to wild type (-(log(KD design) - log(KD wt))) was -0.03.
In test [1], “D3H44 Fab heterodimer, H1L1 of LCCA sets 9763 and 9773 (H: Q179K; L: Q124E_Q160E_T180E)” had a pKd of 9.49. In addition, the Change in KD with respect to wild type (-(log(KD design) - log(KD wt))) in test [2] was -0.31.
In turn, “D3H44 Fab heterodimer, H: S186K, L: Q124E_Q160E_T178E (H1L1 Fab of LCCA set 9830)” had a negative logarithm of the Kd (pKd) in test [3] of 10.22. Further, the Change in KD with respect to wild type (-(log(KD design) - log(KD wt))) in test [4] was found to be 0.41.
In test [1], “D3H44 Fab heterodimer, H1L1 of LCCA sets 9881 and 9882 (H: S186R; L: Q124E_S131T_T178F_T180E)” had a pKd of 9.96. Moreover, in test [2], the Change in KD with respect to wild type (-(log(KD design) - log(KD wt))) amounted to 0.15.
In test [1], “D3H44 Fab heterodimer, H1L1 of LCCA set 9803 (H: Q179R; L: Q124E_S131T_T178F_T180E)” had a negative-log Kd (pKd) of 9.96. Also, the Change in KD with respect to wild type (-(log(KD design) - log(KD wt))) in test [2] was found to be 0.14.
In test [3], “D3H44 Fab heterodimer, H: Q179R, L: Q124E_T178E (H1L1 Fab of LCCA set 9810)” showed a pKd of 9.85. In test [4], the Change in KD with respect to wild type (-(log(KD design) - log(KD wt))) was determined as 0.04.
In test [3], “D3H44 Fab heterodimer, H: L124A_L143F_Q179K, L: Q124E_V133W_S176T_T178L_T180E (H1L1 Fab of LCCA set 9096)” had a pKd of 9.77. In test [4], this substance showed a Change in KD with respect to wild type (-(log(KD design) - log(KD wt))) of -0.04.
Turning to “D3H44 Fab heterodimer, H: L124A_Q179K, L: Q124E_V133W_S176T_T178L_T180E (H1L1 Fab of LCCA set 9099)”, the negative-log Kd (pKd) in test [3] is 9.72. This substance yielded a Change in KD with respect to wild type (-(log(KD design) - log(KD wt))) in test [4] of -0.09.
“D3H44 Fab heterodimer, H1L1 of LCCA set 9867 (H: S186R; L: Q124E_Q160E_T178E)” showed a negative logarithm of the Kd (pKd) in test [1] of 9.85. In test [2], the Change in KD with respect to wild type (-(log(KD design) - log(KD wt))) is 0.06.
Take “D3H44 Fab heterodimer, H: L143E_K145T_Q179E, L: Q124R_Q160K_T178R (H1L1 Fab of LCCA set 9654)”: in test [3], the pKd was 9.82. The substance also yielded a Change in KD with respect to wild type (-(log(KD design) - log(KD wt))) in test [4] of 0.02.
“D3H44 Fab heterodimer, H: Q179R, L: Q124E_Q160E_T178E (H1L1 Fab of LCCA set 9802)” had a negative-log Kd (pKd) in test [3] of 9.96. Also, in test [4], the Change in KD with respect to wild type (-(log(KD design) - log(KD wt))) was 0.16.
“D3H44 Fab heterodimer, H: S186K, L: Q124E_T180E (H1L1 Fab of LCCA sets 9853 and 9858)” had a pKd in test [3] of 10.22. The Change in KD with respect to wild type (-(log(KD design) - log(KD wt))) in test [4] is 0.46.
In the case of “D3H44 Fab heterodimer, H: A139C_L143E_K145T_Q179E, L: F116C_Q124R_T178R (H1L1 Fab of LCCA set 9049)”, in test [3], the negative-log Kd (pKd) was 9.80. In test [4], this substance had a Change in KD with respect to wild type (-(log(KD design) - log(KD wt))) of -0.01.
Taken in the same sequence, the figures for “D3H44 Fab heterodimer, H: S186R, L: Q124E_T178E (H1L1 Fab of LCCA set 9888)” were 9.85 and 0.06.
On the same counts, the results for “D3H44 Fab heterodimer, H: Q179R, L: Q124E_T178E_T180E (H1L1 Fab of LCCA set 9812)” are 9.80 and -0.01.
